We go through 3 molecules from PMC3170320, “Minimal Antizyme Peptide Fully Functioning in the Binding and Inhibition of Ornithine Decarboxylase and Antizyme Inhibitor” (PLoS ONE, 2011).

In one data set the test system is ODC degradation. As to conditions: cited from earlier work. The source says: (§1) There are at least four AZ isozymes with different binding affinities for ODC [31]–[32]. Isoform 1, AZ-1, is present in all tissues and is the major isoform that participates in ODC degradation. […] The C-terminal region of AZ-1 interacts with ODC to inhibit enzyme activity, and the N-terminal region of AZ-1 controls the degradation of ODC [34]–[36]. AZ-2 has a distribution similar to that of AZ-1 in all of the tissues and cells examined thus far, but its expr ...

A further data set relates to ODC. As to conditions: cited from earlier work.
Description: as §1

Another data set has as its system human AZI. Put plainly: AZ peptide-AZI complex size distribution by analytical ultracentrifugation. As to conditions: Table 2. Type of data set: binding. Here is the method: A Beckman Optima XL-A analytical ultracentrifuge was used for sedimentation velocity experiments. Reference and sample sectors in the centerpiece were filled with buffer (400 µl) and sample protein (0.3 mg/mL, 380 µl), respectively, and then the cell was built up in an An-50 Ti rotor. Sedimentation velocity experiments were performed at 20°C with a rotor speed of 42,000 rpm. The data were traced by absorbance at 280 nm in continuous mode, with a time interval of 420 s and a step size of 0.002 cm. A total of 20–30 scans at different time points were collected and fitted to a continuous size distribution model using the program SEDFIT [54]–[55]. All size distributions were calculated at 0.1 to 20 S with a confidence level of p = 0.95 and a resolution N of 200.
In order to determine the dissociation constants (K d) of the AZ peptide-ODC and AZ peptide-AZI complexes, sedimentation velocity experiments were performed at different concentrations of AZ or AZ peptide with a constant concentration of human ODC or AZI. The K d values of the AZ peptide-ODC and AZ peptide-AZI complexes were calculated by a global fitting of all sedimentation data in the AB hetero-association model in the SEDPHAT program [56]–[57]. The partial specific volumes of the proteins, the solvent densities, and the viscosity were calculated by the SEDNTERP program. […]

Another data set has as its system AZ peptide-inhibited ODC. In words: Rescue of AZ-inhibited ODC enzyme activity by AZI. It is filed as biochemical, human. As to conditions: Figure 4. Here is the method:
Figure 4 Relative ODC enzyme activities in the presence of AZ and AZI. ODC enzymes equilibrated with equimolar AZI were inhibited by various concentrations of AZ peptides. The concentrations of AZI and ODC were fixed at 18.9 µg/mL and 20 µg/mL, respectively (the ratio of AZI monomer versus ODC monomer was fixed at 1). Panels A–H show the inhibition curves of ODC for each AZ peptide in the absence (closed circles) and in the presence (open circles) of AZI.
For enzyme rescue experiments with AZI, the ODC enzyme was first pre-incubated with AZ at a molar ratio of 3.5 AZ monomers to 1 ODC monomer to achieve 80% enzyme inhibition. The inhibited ODC activity was recovered by increasing the AZI concentration.

The next data set relates to AZ. As to conditions: ref [20], [46]–[48]; cited from earlier work. The source says:
Another protein that regulates ODC by binding to AZ is called antizyme inhibitor (AZI). AZI is homologous to ODC, but lacks ODC enzymatic activity, [43]–[46]. […] AZI can bind to all isoforms of mammalian AZ [32], [42].

B1: AZ-3: AZ isozyme 3, germ cells of testes (protein, UniProt Q9UMX2 1-235, looked up)
Ornithine decarboxylase …: MPCKRCRPSVYSLSYIKRGKTRNYLYPIWSPYAYYLYCYKYRITLREKMLPRCYKSITYKEEEDLTLQPRSCLQCSESLVGLQEGKSTEQGNHDQLKELYSAGNLTVLATDPLLHQDPVQLDFHFRLTSQTSAHWHGLLCDRRLFLDIPYQALDQGNRESLTATLEYVEEKTNVDSVFVNFQNDRNDRGALLRAFSYMGFEVVRPDHPALPPLDNVIFMVYPLERDVGHLPSEPP
With B1, the “ODC degradation, AZ-3” value in the data set on ODC degradation (ref [41]) is “fails to stimulate ODC degradation”. For the same molecule, the “Inhibition of ODC activity, AZ-3” value with ODC (ref [41]) is given as “poorly inhibits ODC activity”.

B2: AZ-2: AZ isozyme 2, distribution similar to AZ-1, lower expression level (protein, UniProt O95190 1-189, looked up)
Ornithine decarboxylase …: MINTQDSSILPLSNCPQLQCCRHIVPGPLWCSDAPHPLSKIPGGRGGGRDPSLSALIYKDEKLTVTQDLPVNDGKPHIVHFQYEVTEVKVSSWDAVLSSQSLFVEIPDGLLADGSKEGLLALLEFAEEKMKVNYVFICFRKGREDRAPLLKTFSFLGFEIVRPGHPCVPSRPDVMFMVYPLDQNLSDED
Consider B2, for which, in the data set on ODC degradation (ref [38]–[39]), the “ODC degradation, AZ-2” value was “does not promote ODC degradation”. Further, the “Inhibition of ODC activity, AZ-2” value with ODC (ref [38]–[39]) is recorded as “can inhibit ODC enzyme activity”.

B3: Antizyme inhibitor (protein)
chain: MKGFIDDANYSVGLLDEGTNLGNVIDNYVYEHTLTGKNAFFVGDLGKIVKKHSQWQNVVAQIKPFYTVKCNSAPAVLEILAALGTGFACSSKNEMALVQELGVPPENIIYISPCKQVSQIKYAAKVGVNILTCDNEIELKKIARNHPNAKVLLHIATEDNIGGEEGNMKFGTTLKNCRHLLECAKELDVQIIGVKFHVSSACKESQVYVHALSDARCVFDMAGEIGFTMNMLDIGGGFTGTEFQLEEVNHVISPLLDIYFPEGSGVKIISEPGSYYVSSAFTLAVNIIAKKVVENDKFPSGVEKTGSDEPAFMYYMNDGVYGSFASKLSEDLNTIPEVHKKYKEDEPLFTSSLWGPSCDELDQIVESCLLPELNVGDWLIFDNMGADSFHEPSAFNDFQRPAIYYMMSFSDWYEMQDAGITSDSMMKNFFFVPSCIQLSQEDSFSAEA
modifications: left off: His6, N-terminal, state not stated
For the molecule B3, the “Affinity of AZI for AZ peptides versus ODC (in words)” value in the data set with human AZI is on record as “can bind to AZ peptides with a higher affinity than ODC”. Further, the “Rescue of ODC enzyme activity by AZI (in words)” value in the data set with AZ peptide-inhibited ODC was “can rescue AZ peptide-inhibited ODC enzyme activity”. In addition, in the data set on AZ, the “Affinity of AZI for AZ” value is reported as “binds to AZ with a higher affinity than ODC”.
